Publication PMC9958131 (Nature Communications, 2023)

test system: PAD2 and PAD4; experiment: Citrullination site mapping of fibrinogen and vimentin by trypsin digestion and mass spectrometry (protein-level sheet, one search over native, PAD2-cit and PAD4-cit samples); format: biochemical, human; conditions: modified residues found per protein; Deamidated [R..] = deamidated (citrullinated) arginine positions; trypsin digest, Sequest HT; not split by sample (native, PAD2-citrullinated, PAD4-citrullinated fibrinogen and vimentin)
From the text: Description: Raw mass spectrometry data for proteolytic mapping of fibrinogen, vimentin, and hnRNP A2/B1 by cathepsins B, S, and H (sheets 1-6); citrullination site mapping of fibrinogen and vimentin by trypsin digestion (sheets 7-8); and the natural antigen processing assay with native, PAD2-citrullinated (PAD2-cit), and PAD4-citrullinated (PAD4-cit) fibrinogen (sheets 9-11).

Molecule | Modifications
F5GXS0 (protein) MRLLWGLIWASSFFTLSLQKPRLLLFSPSVVHLGVPLSVGVQLQDVPRGQVVKGSVFLRNPSRNNVPCSPKVDFTLSSERDFALLSLQVPLKDAKSCGLHQLLRGPEVQLVAHSPWLKDSLSRTTNIQGINLLFSSRRGHLFLQTDQPIYNPGQRVRYRVFALDQKMRPSTDTITVMVENSHGLRVRKKEVYMPSSIFQDDFVIPDISEPGTWKISARFSDGLESNSSTQFEVKKYVLPNFEVKITPGKPYILTVPGHLDEMQLDIQARYIYGKPVQGVAYVRFGLLDEDGKKTFFRGLESQTKLVNGQSHISLSKAEFQDALEKLNMGITDLQGLRLYVAAAIIESPGGEMEEAELTSWYFVSSPFSLDLSKTKRHLVPGAPFLLQALVREMSGSPASGIPVKVSATVSSPGSVPEVQDIQQNTDGSGQVSIPIIIPQTISELQLSVSAGSPHPAIARLTVAAPPSGGPGFLSIERPDSRPPRVGDTLNLNLRAVGSGA | Deamidated [R123; R1126]
A0A140TA32 (protein) MRLLWGLIWASSFFTLSLQKPRLLLFSPSVVHLGVPLSVGVQLQDVPRGQVVKGSVFLRNPSRNNVPCSPKVDFTLSSERDFALLSLQVPLKDAKSCGLHQLLRGPEVQLVAHSPWLKDSLSRTTNIQGINLLFSSRRGHLFLQTDQPIYNPGQRVRYRVFALDQKMRPSTDTITVMVENSHGLRVRKKEVYMPSSIFQDDFVIPDISEPGTWKISARFSDGLESNSSTQFEVKKYVLPNFEVKITPGKPYILTVPGHLDEMQLDIQARYIYGKPVQGVAYVRFGLLDEDGKKTFFRGLESQTKLVNGQSHISLSKAEFQDALEKLNMGITDLQGLRLYVAAAIIEYPGGEMEEAELTSWYFVSSPFSLDLSKTKRHLVPGAPFLLQALVREMSGSPASGIPVKVSATVSSPGSVPEVQDIQQNTDGSGQVSIPIIIPQTISELQLSVSAGSPHPAIARLTVAAPPSGGPGFLSIERPDSRPPRVGDTLNLNLRAVGSGA | Deamidated [R123]
C9JU00 (protein) MIDAATLKSRKMLEEIMKYEASILTHDSSIRYLQEIYNSNNQKIVNLKEKVAQLEAQCQEPCKDTVQIHDITGKDCQDIANKGAKQSGLYFIKPLKANQQFLVYCEIDGSGNGWTVFQKRLDG | Deamidated [R31]
E7ESP9 (protein) MSYTLDSLGNPSAYRRVTETRSSFSRVSGSPSSGFRSQSWSRGSPSTVSSSYKRSMLAPRLAYSSAMLSSAESSLDFSQSSSLLNGGSGPGGDYKLSRSNEKEQLQGLNDRFAGYIEKVHYLEQQNKEIEAEIQALRQKQASHAQLGDAYDQEIRELRATLEMVNHEKAQVQLDSDHLEEDIHRLKERFEEEARLRDDTEAAIRALRKDIEEASLVKVELDKKVQSLQDEVAFLRSNHEEEVADLLAQIQASHITVERKDYLKTDISTALKEIRSQLESHSDQNMHQAEEWFKCRYAKLTEAAEQNKEAIRSAKEEIAEYRRQLQSKSIELESVRGTKESLERQLSDIEERHNHDLSSYQDTIQQLENELRGTKWEMARHLREYQDLLNVKMALDIEIAAYRKLLEGEETRFSTFAGSITGPLYTHRPPITISSKIQKPKVEAPKLKVQHKFVEEIIEETKVEDEKSEMEEALTAITEELAVSMKEEKKEAAEEKEEEPE | Deamidated [R382]
P13647 (protein, UniProt P13647 1-590, looked up, full-length) MSRQSSVSFRSGGSRSFSTASAITPSVSRTSFTSVSRSGGGGGGGFGRVSLAGACGVGGYGSRSLYNLGGSKRISISTSGGSFRNRFGAGAGGGYGFGGGAGSGFGFGGGAGGGFGLGGGAGFGGGFGGPGFPVCPPGGIQEVTVNQSLLTPLNLQIDPSIQRVRTEEREQIKTLNNKFASFIDKVRFLEQQNKVLDTKWTLLQEQGTKTVRQNLEPLFEQYINNLRRQLDSIVGERGRLDSELRNMQDLVEDFKNKYEDEINKRTTAENEFVMLKKDVDAAYMNKVELEAKVDALMDEINFMKMFFDAELSQMQTHVSDTSVVLSMDNNRNLDLDSIIAEVKAQYEEIANRSRTEAESWYQTKYEELQQTAGRHGDDLRNTKHEISEMNRMIQRLRAEIDNVKKQCANLQNAIADAEQRGELALKDARNKLAELEEALQKAKQDMARLLREYQELMNTKLALDVEIATYRKLLEGEECRLSGEGVGPVNISVVTSSVSSGYGSGSGYGGGLGGGLGGGLGGGLAGGSSGSYYSSSSGGVGLGGGLSVGGSGFSASSGRGLGVGFGSGGGSSSSVKFVSTTSSSRKSFKS | Deamidated [R37; R73; R187; R227]
K7ERE3 (protein) MSLRLQSSSASYGGGFGGGSCQLGGGRGVSTCSTRFVSGGSAGGYGGGVSCGFGGGAGSGFGGGYGGGLGGGYGGGLGGGFGGGFAGGFVDFGACDGGLLTGNEKITMQNLNDRLASYLEKVRALEEANADLEVKIRDWHLKQSPASPERDYSPYYKTIEELRDKILTATIENNRVILEIDNARLAADDFRLKYENELALRQSVEADINGLRRVLDELTLSKTDLEMQIESLNEELAYMKKNHEEEMKEFSNQVVGQVNVEMDATPGIDLTRVLAEMREQYEAMAERNRRDAEEWFHTKSAELNKEVSTNTAMIQTSKTEITELRRTLQGLEIELQSQLSMKAGLENTVAETECRYALQLQQIQGLISSIEAQLSELRSEMECQNQEYKMLLDIKTRLEQEIATYRSLLEGQDAK | Deamidated [R27; R212]
P00488 (protein) MSETSRTAFGGRRAVPPNNSNAAEDDLPTVELQGVVPRGVNLQEFLNVTSVHLFKERWDTNKVDHHTDKYENNKLIVRRGQSFYVQIDFSRPYDPRRDLFRVEYVIGRYPQENKGTYIPVPIVSELQSGKWGAKIVMREDRSVRLSIQSSPKCIVGKFRMYVAVWTPYGVLRTSRNPETDTYILFNPWCEDDAVYLDNEKEREEYVLNDIGVIFYGEVNDIKTRSWSYGQFEDGILDTCLYVMDRAQMDLSGRGNPIKVSRVGSAMVNAKDDEGVLVGSWDNIYAYGVPPSAWTGSVDILLEYRSSENPVRYGQCWVFAGVFNTFLRCLGIPARIVTNYFSAHDNDANLQMDIFLEEDGNVNSKLTKDSVWNYHCWNEAWMTRPDLPVGFGGWQAVDSTPQENSDGMYRCGPASVQAIKHGHVCFQFDAPFVFAEVNSDLIYITAKKDGTHVVENVDATHIGKLIVTKQIGGDGMMDITDTYKFQEGQEEERLALETALM | Deamidated [R6; R202; R675; R697]; Met-loss+Acetyl [N-Term]
P02538 (protein) MASTSTTIRSHSSSRRGFSANSARLPGVSRSGFSSVSVSRSRGSGGLGGACGGAGFGSRSLYGLGGSKRISIGGGSCAISGGYGSRAGGSYGFGGAGSGFGFGGGAGIGFGLGGGAGLAGGFGGPGFPVCPPGGIQEVTVNQSLLTPLNLQIDPTIQRVRAEEREQIKTLNNKFASFIDKVRFLEQQNKVLETKWTLLQEQGTKTVRQNLEPLFEQYINNLRRQLDSIVGERGRLDSELRGMQDLVEDFKNKYEDEINKRTAAENEFVTLKKDVDAAYMNKVELQAKADTLTDEINFLRALYDAELSQMQTHISDTSVVLSMDNNRNLDLDSIIAEVKAQYEEIAQRSRAEAESWYQTKYEELQVTAGRHGDDLRNTKQEIAEINRMIQRLRSEIDHVKKQCANLQAAIADAEQRGEMALKDAKNKLEGLEDALQKAKQDLARLLKEYQELMNVKLALDVEIATYRKLLEGEECRLNGEGVGQVNISVVQSTVSSGYGGA | Deamidated [R182; R222; R326]
P02533 (protein) MTTCSRQFTSSSSMKGSCGIGGGIGGGSSRISSVLAGGSCRAPSTYGGGLSVSSSRFSSGGACGLGGGYGGGFSSSSSSFGSGFGGGYGGGLGAGLGGGFGGGFAGGDGLLVGSEKVTMQNLNDRLASYLDKVRALEEANADLEVKIRDWYQRQRPAEIKDYSPYFKTIEDLRNKILTATVDNANVLLQIDNARLAADDFRTKYETELNLRMSVEADINGLRRVLDELTLARADLEMQIESLKEELAYLKKNHEEEMNALRGQVGGDVNVEMDAAPGVDLSRILNEMRDQYEKMAEKNRKDAEEWFFTKTEELNREVATNSELVQSGKSEISELRRTMQNLEIELQSQLSMKASLENSLEETKGRYCMQLAQIQEMIGSVEEQLAQLRCEMEQQNQEYKILLDVKTRLEQEIATYRRLLEGEDAHLSSSQFSSGSQSSRDVTSSSRQIRTKVMDVHDGKVVSTHEQVLRTKN | Deamidated [R125; R194; R282; R336; R439]; Met-loss+Acetyl [N-Term]
Q9Y2J8 (protein) MLRERTVRLQYGSRVEAVYVLGTYLWTDVYSAAPAGAQTFSLKHSEHVWVEVVRDGEAEEVATNGKQRWLLSPSTTLRVTMSQASTEASSDKVTVNYYDEEGSIPIDQAGLFLTAIEISLDVDADRDGVVEKNNPKKASWTWGPEGQGAILLVNCDRETPWLPKEDCRDEKVYSKEDLKDMSQMILRTKGPDRLPAGYEIVLYISMSDSDKVGVFYVENPFFGQRYIHILGRRKLYHVVKYTGGSAELLFFVEGLCFPDEGFSGLVSIHVSLLEYMAQDIPLTPIFTDTVIFRIAPWIMTPNILPPVSVFVCCMKDNYLFLKEVKNLVEKTNCELKVCFQYLNRGDRWIQDEIEFGYIEAPHKGFPVVLDSPRDGNLKDFPVKELLGPDFGYVTREPLFESVTSLDSFGNLEVSPPVTVNGKTYPLGRILIGSSFPLSGGRRMTKVVRDFLKAQQVQAPVELYSDWLTVGHVDEFMSFVPIPGTKKFLLLMASTSACYKL | Deamidated [R5; R8; R54; R68; R78; R157; R187; R193; R225; R232; R344; R347; R373; R428; R441; R442; R546; R552; R580; R582; R652; R653]
P01023 (protein) MGKNKLLHPSLVLLLLVLLPTDASVSGKPQYMVLVPSLLHTETTEKGCVLLSYLNETVTVSASLESVRGNRSLFTDLEAENDVLHCVAFAVPKSSSNEEVMFLTVQVKGPTQEFKKRTTVMVKNEDSLVFVQTDKSIYKPGQTVKFRVVSMDENFHPLNELIPLVYIQDPKGNRIAQWQSFQLEGGLKQFSFPLSSEPFQGSYKVVVQKKSGGRTEHPFTVEEFVLPKFEVQVTVPKIITILEEEMNVSVCGLYTYGKPVPGHVTVSICRKYSDASDCHGEDSQAFCEKFSGQLNSHGCFYQQVKTKVFQLKRKEYEMKLHTEAQIQEEGTVVELTGRQSSEITRTITKLSFVKVDSHFRQGIPFFGQVRLVDGKGVPIPNKVIFIRGNEANYYSNATTDEHGLVQFSINTTNVMGTSLTVRVNYKDRSPCYGYQWVSEEHEEAHHTAYLVFSPSKSFVHLEPMSHELPCGHTQTVQAHYILNGGTLLGLKKLSFYYLIM | Deamidated [R645; R704; R715; R719; R1401; R1407]
